Source: the supplement of paper PMC9732359
± gives the uncertainty stated by the source.

Experiment: protein stability index of a GFP-peptide fusion (yeast GPS) (PSI 1-4); higher = more stable; sorted into four equal gates, so the index is relative within each strain
Summary of the method: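 Tiled 17-residue peptides from yeast proteins were fused downstream of GFP on a plasmid that also expresses Cherry, and the pooled library was carried in yeast. Mid-log cultures grown in leucine-free medium were sorted into four equal gates by GFP/Cherry fluorescence ratio. Plasmids from each gate were PCR-amplified and Illumina-sequenced, and reads were assigned to strains by barcodes. Each peptide's protein stability index is the sum, over gates, of the gate's read frequency multiplied by its gate number.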

FSQKANKTKAVDNTVPS [YOR098C/NUP1]
protein stability index (doa10∆): 2.15 ± 0.085 | protein stability index (pdr5∆): 1.63 ± 0.056 | protein stability index (san1∆): 1.81 ± 0.1 | protein stability index (ubr1∆): 2.17 ± 0.046

FRISLGLPVGAIMNCAD [RPL23A]
protein stability index (doa10∆): 1.95 ± 0.045 | protein stability index (pdr5∆): 1.9 ± 0.044 | protein stability index (san1∆): 1.57 ± 0.057 | protein stability index (ubr1∆): 1.7 ± 0.035

SVGLPSKVASSLVIIIL [ECM29]
protein stability index (doa10∆): 2.21 ± 0.048 | protein stability index (pdr5∆): 1.8 ± 0.041 | protein stability index (san1∆): 2.28 ± 0.064 | protein stability index (ubr1∆): 2.21 ± 0.061

LFPNELYNVMGINKKKL [RPC31]
protein stability index (doa10∆): 3.09 ± 0.27 | protein stability index (pdr5∆): 2.87 ± 0.24 | protein stability index (san1∆): 3.29 ± 0.082 | protein stability index (ubr1∆): 3.5 ± 0.26

KRSGHRTAPKSDNVYLK [RPL18A]
protein stability index (doa10∆): 2.85 ± 0.12 | protein stability index (pdr5∆): 2.68 ± 0.095 | protein stability index (san1∆): 2.69 ± 0.12 | protein stability index (ubr1∆): 2.61 ± 0.077

SRGNGGKKVLNKNQLLK [POP1]
protein stability index (doa10∆): 1.86 ± 0.14 | protein stability index (pdr5∆): 2.54 ± 0.11 | protein stability index (san1∆): 2.53 ± 0.14 | protein stability index (ubr1∆): 3.43 ± 0.11

ICEPKETLSIFTNVPLN [YJL039C/NUP192]
protein stability index (doa10∆): 2.1 ± 0.046 | protein stability index (pdr5∆): 2.24 ± 0.042 | protein stability index (san1∆): 2.54 ± 0.05 | protein stability index (ubr1∆): 2.36 ± 0.037

SGQLNFEIDGDVIHFED [PCI8]
protein stability index (doa10∆): 2.94 ± 0.091 | protein stability index (pdr5∆): 2.83 ± 0.067 | protein stability index (san1∆): 2.53 ± 0.075 | protein stability index (ubr1∆): 2.83 ± 0.043

FDIIEESFKGLQPFWFR [ECM29]
protein stability index (doa10∆): 2.63 ± 0.11 | protein stability index (pdr5∆): 2.58 ± 0.15 | protein stability index (san1∆): 2.35 ± 0.17 | protein stability index (ubr1∆): 2.21 ± 0.11

IVRPAKGVATTREKVLE [RRP46]
protein stability index (doa10∆): 3.43 ± 0.16 | protein stability index (pdr5∆): 2.83 ± 0.1 | protein stability index (san1∆): 2.21 ± 0.12 | protein stability index (ubr1∆): 3.09 ± 0.082

TQVALNESEKDQWLEEY [UBP6]
protein stability index (doa10∆): 3 ± 0.1 | protein stability index (pdr5∆): 2.55 ± 0.07 | protein stability index (san1∆): 2.66 ± 0.077 | protein stability index (ubr1∆): 2.88 ± 0.055

VSSTIPRETIPFLHLRK [FAS2]
protein stability index (doa10∆): 2.93 ± 0.27 | protein stability index (pdr5∆): 2.35 ± 0.13 | protein stability index (san1∆): 2.79 ± 0.16 | protein stability index (ubr1∆): 2.6 ± 0.15

KEAAAIAEGKSKQDASP [RPL8B]
protein stability index (doa10∆): 2.96 ± 0.1 | protein stability index (pdr5∆): 3.35 ± 0.083 | protein stability index (san1∆): 2.99 ± 0.068 | protein stability index (ubr1∆): 3.06 ± 0.062

ENDQQDNEEWMNDVINT [LIN1]
protein stability index (doa10∆): 3.36 ± 0.076 | protein stability index (pdr5∆): 3.24 ± 0.073 | protein stability index (san1∆): 3.19 ± 0.058 | protein stability index (ubr1∆): 2.98 ± 0.071

YVGNKRLELAGQLISLL [RET1]
protein stability index (doa10∆): 2.84 ± 0.083 | protein stability index (pdr5∆): 3.25 ± 0.092 | protein stability index (san1∆): 2.7 ± 0.074 | protein stability index (ubr1∆): 2.92 ± 0.079

KLHFKDTKPFLNKDSTN [NUT1]
protein stability index (doa10∆): 2.51 ± 0.098 | protein stability index (pdr5∆): 2.23 ± 0.073 | protein stability index (san1∆): 1.99 ± 0.071 | protein stability index (ubr1∆): 2.6 ± 0.041

TGNNLYDRNSNNNHKDK [SWI1]
protein stability index (doa10∆): 3.03 ± 0.049 | protein stability index (pdr5∆): 3.12 ± 0.051 | protein stability index (san1∆): 2.89 ± 0.06 | protein stability index (ubr1∆): 3.12 ± 0.039

DLLRSQLTSLEKDCSLR [YIL149C/MLP2]
protein stability index (doa10∆): 2.94 ± 0.061 | protein stability index (pdr5∆): 3.05 ± 0.063 | protein stability index (san1∆): 2.33 ± 0.077 | protein stability index (ubr1∆): 3.03 ± 0.042

ESDNYRLLPNGSNKAQI [YML031W/NDC1]
protein stability index (doa10∆): 3.08 ± 0.061 | protein stability index (pdr5∆): 3.18 ± 0.067 | protein stability index (san1∆): 2.78 ± 0.047 | protein stability index (ubr1∆): 2.95 ± 0.035

APSDFSENQRQIFCVFS [GRR1]
protein stability index (doa10∆): 2.93 ± 0.071 | protein stability index (pdr5∆): 2.58 ± 0.078 | protein stability index (san1∆): 2.76 ± 0.064 | protein stability index (ubr1∆): 2.65 ± 0.057

ALTDFERFQVMVLRKQK [RPL14A]
protein stability index (doa10∆): 1.96 ± 0.11 | protein stability index (pdr5∆): 1.97 ± 0.11 | protein stability index (san1∆): 1.62 ± 0.12 | protein stability index (ubr1∆): 2.16 ± 0.065

SKTHKTVSRAYGGSRCA [RPL34A]
protein stability index (doa10∆): 2.68 ± 0.071 | protein stability index (pdr5∆): 2.91 ± 0.054 | protein stability index (san1∆): 2.82 ± 0.064 | protein stability index (ubr1∆): 2.85 ± 0.048

IKKEEGKIDEAADILCE [RPN5]
protein stability index (doa10∆): 3.1 ± 0.096 | protein stability index (pdr5∆): 2.69 ± 0.12 | protein stability index (san1∆): 2.95 ± 0.11 | protein stability index (ubr1∆): 2.52 ± 0.069

IRKGPAPLNLEIPAYEF [RIP1]
protein stability index (doa10∆): 2.76 ± 0.062 | protein stability index (pdr5∆): 2.58 ± 0.083 | protein stability index (san1∆): 2.67 ± 0.06 | protein stability index (ubr1∆): 2.73 ± 0.062

NNHNMRNNSNNKTSNNN [SWI1]
protein stability index (doa10∆): 2.56 ± 0.088 | protein stability index (pdr5∆): 2.55 ± 0.068 | protein stability index (san1∆): 1.85 ± 0.093 | protein stability index (ubr1∆): 2.6 ± 0.049

SQSRSAKAGLTFPVGRV [HTA1]
protein stability index (doa10∆): 2.8 ± 0.071 | protein stability index (pdr5∆): 2.85 ± 0.08 | protein stability index (san1∆): 2.92 ± 0.042 | protein stability index (ubr1∆): 3.07 ± 0.035
